Here are results for two substances from patent US20230048633A1.

The target of this test is recombinant HLA-E-His protein (human) (UniProt P13747). As to the kind of experiment: ELISA: the chimeric protein itself was coated in a 1:3 titration (the x axis is its coating concentration), HLA-E-His (Novus NBP2-47435PEP) was added, detected with Anti-6x-His-HRP (Abcam Ab1187). (ELISA stands for enzyme-linked immunosorbent assay.)

“hSLAMF6-Fc-NKG2A chimeric protein (from UniProt Q96DU3 22-226; P26715 94-233) (Fc fusion)”: the EC50 (read off the curve) worked out at 6 µg/mL.

As for “hTGFBR2-Fc-NKG2A chimeric protein (Fc fusion)”, the EC50 (read off the curve) was 5 µg/mL.

One may read the EC50 (read off the curve) as the concentration that produces a half-maximal response.
